{
  "source": "the domain aggregation screens of Martell et al. (2025)",
  "data": [
    {"test": "soluble fraction after stress (log2 fold change); higher = more stays soluble; pooled small domains, quantitative proteomics", "details": "stress: 50 degC", "summary_of_the_method": "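Custom libraries of small protein domains were pooled and measured in a high-throughput format, with quantitative proteomics as the read-out. Each library was stressed at 50°C. The value is the log2 fold change in the amount of each protein that stays soluble after stress, used as a measure of aggregation propensity; higher values mean more of the protein stays soluble.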", "values": [
      {"sequence": "HMLFQGDTPAENIILEILSKNGTTASDSIIKQSGLSVSDFNQAATMLEIKGLISNNGGNIWSL", "soluble fraction (log2)": 0.0636},
      {"sequence": "HMDNIKRGEMFYISRGGASYSGSEQHSDRPAVVVSNDKNNENSNVVEVVYMTTQPKTDLPTHVTVR", "soluble fraction (log2)": 0.0894},
      {"sequence": "HMEIALNDKQILLFSNKLVHEPSFASKYSKVGESYDDFAIRISENLTIPDKVQEYLPYLEKVGFNI", "soluble fraction (log2)": -0.00852},
      {"sequence": "HMKKPANLISEDRMVEVLYDVIIINTAKGVNKQLLQNNINNPLNYIYRSHGIDSLQFAESNAYYTS", "soluble fraction (log2)": -0.371},
      {"sequence": "HMLARFSGIALNTWTQADVERTFGPPMLVERVARFDGDIWTYRFMDDYEPRMAHIHIDRAGTVRQLVF", "soluble fraction (log2)": -2.77},
      {"sequence": "HMSGVIVPDIYNKTLAEAVASLEGEGFSTEKKEGYSDTVPKGNVMSQKPEAGTSAERGSTVTITISQGPQ", "soluble fraction (log2)": -0.0107},
      {"sequence": "HMDVNSRIRQFLKKMKITVQTFESSIGKTNGYIAHTKSPTAGVLAEIAKVYPDLNLDWLITGEGEMLKN", "soluble fraction (log2)": -0.468},
      {"sequence": "HMGLNVSYRMDGENVVETIIFSGATMIRTVTPTGTMTIKTIENGSTSTAKVNADYSVYKKIYEAQY", "soluble fraction (log2)": -2.59},
      {"sequence": "HMSENMSQDLAQWYRLQQALHPNLDAPELWATDLTSQQRTVRDQLIQQWAQEKRDSLWSEISGD", "soluble fraction (log2)": 0.0433},
      {"sequence": "HMRRPRGVFNLVPGKRFGFITPDGGGEDVFAHLANVRAGHVAEDRNAVEYGIGRGPDGRDQAVDIVPMP", "soluble fraction (log2)": -0.128},
      {"sequence": "HMNIEDFKDKVKELKQYTYQELVEDVKLKTDRADVILPASKIYLEAMQQAKVDSIIVPKVGLAEGVAR", "soluble fraction (log2)": 0.0593},
      {"sequence": "HMTGGIWVQIQGAVERPGVYSLPRDSRLKDLLEAAGGFGRDADTEKVNQAARLEDGAMYRVPRQGEG", "soluble fraction (log2)": 0.352},
      {"sequence": "HMKAQTVPQFVGMTMTEAEEKASELGITLIEGAVVDSVEPKDTILTQDVDEGTEITGKMEIMVTISS", "soluble fraction (log2)": -0.28},
      {"sequence": "HMSRWHEFLNKSEDGMKELDEQNQKVLTLLILQRFYQTPFQAKEDEEFYREFFERLSSVNEILG", "soluble fraction (log2)": 0.0126},
      {"sequence": "HMESNDSNIEDDFYEGLKSMRKGDLKMSVVFFTRVIEKKPTFAEAWNRRATVYYMLGKFDKSMFDINETLK", "soluble fraction (log2)": -0.115},
      {"sequence": "HMNAIYKFVLGMIGKRSGVVTTLPSKKQVEFQANMLAEKFMQNGIDPNALKSPEQVKNVLANIDQ", "soluble fraction (log2)": -0.737},
      {"sequence": "HMNSQSGKGGVGYILETKYGLNLPPKMREAMGYAAKGVSDHLHKELHPDEIFDLFKKTFENVGQPYS", "soluble fraction (log2)": -0.0272},
      {"sequence": "HMEAMITEVKRINYGLISDISKSLDPFKSEGGHIIVDKRTNTFILTDLRANIEKMLWSIEIMD", "soluble fraction (log2)": -0.111},
      {"sequence": "HMNALVAKYKQGVTEEQQQGQGIIIIKRVVVRDQEAWVYEKKIFDWGGVSYFRDKQRITASTFNQETAL", "soluble fraction (log2)": -2.86},
      {"sequence": "HMTISGSDLKAQREALNIPLERIAKETRIRLSILQDLEDEEYSELSSSAQTKGFLRLYADYLSSHKQRLG", "soluble fraction (log2)": -0.415},
      {"sequence": "HMRPQELSSLNTNQMRLYNSLPEAFITAEAKDIADKLRYSERSLFRFLNESNLFTKTEHGSYAKKA", "soluble fraction (log2)": 0.133},
      {"sequence": "HMTDLALHIGKTLRELRQRRGWSLDKTAQATGVSKAMLGQIERGESSPTVVTLWRISSGLQASFSEFLPP", "soluble fraction (log2)": -1.61},
      {"sequence": "HMEYTVNRLAQISGVSKRTLRYYDEIGLLRPERVNPNGYRIYGQMQVDLLQQILFYRELGLPLEEIREII", "soluble fraction (log2)": -0.467},
      {"sequence": "HMREPQMVTVNGDKVTHGHAYRSNVNPEDWYFTARINGQQLKPQKMEPADVAAYDKKEIGVPELMQR", "soluble fraction (log2)": -0.0941},
      {"sequence": "HMSYPEIFQSLTEREQKIADMIAEHLSNKEIAEKMFLSEGTIKQYINQIYSKLQITGDIRNKRKQLIELFH", "soluble fraction (log2)": -1.16},
      {"sequence": "HMSREEFLTELRKALQGRVSQQTVNDNLRYYEEYILTESHKGKTEAEVIAELGNPRLLAKSIIDAENAT", "soluble fraction (log2)": 0.107},
      {"sequence": "HMEDVLVTQIIQLKHVDANDMKTLFTPLLSRGSSQLLAYPQSNVLIITDTRSNIKKITEILDIIDKS", "soluble fraction (log2)": -0.629},
      {"sequence": "HMEGTAAAVALKGLMEQSGVDLREVMAAVESRGYYPKGTPFENYDPAFVSGVLVGAWDQVYKMILDQRPIP", "soluble fraction (log2)": -0.217},
      {"sequence": "HMVDFVNVVVPVKANYGGEAVVEFLDERLSEFGTEGIYRIELQGETMENPSPDYSQLKAKYHISEIVDRT", "soluble fraction (log2)": 0.08},
      {"sequence": "HMALMLGGLIVYLNTTAPRDDIDLIELSKDTKAMAAFGNKLASPDYNGKQFALDWHELSRDEIMSKYFS", "soluble fraction (log2)": -0.987},
      {"sequence": "HMLMRSPDFLIGWFQNLVAKRETFNDQVQAKNLIEAGKQHIQGEDFDRLLEVNRRLFSLLPQREQE", "soluble fraction (log2)": 0.215},
      {"sequence": "HMGEKFTFGQIAKAKAYAKTYANDMTSAVKNIEAIATGLSKHPEVADTLKKANENQELNRITKLAG", "soluble fraction (log2)": 0.149},
      {"sequence": "HMGSGVNVTVNGKRMNLPLKDDHIIFVDIFNYIDFDLSKPKGSIVLKLNGRDAGYTDPIKDGDVIDIYWQ", "soluble fraction (log2)": 0.33},
      {"sequence": "HMNYIGADAAKNMAAADAQVDTANASFSGANLGEKNGLSYYQVDFTANGREYHYAIDAMTGTVIESSSAAS", "soluble fraction (log2)": 0.124},
      {"sequence": "HMVNSIQIHKKLRLDKRAGSDNWYARLTLPNGKRLVKTTKTEDIETAKEVALRLYYEVDARIQNKLPAT", "soluble fraction (log2)": -1.45},
      {"sequence": "HMKLSKLTKPELDEIFRNANFTEEEEKVFWLLARGKSLEQISAKTFLPIATVNRRVKSIKDKIG", "soluble fraction (log2)": 0.0605},
      {"sequence": "HMGQERAVPDVKGQSFDMAQGNISRAGLKAVVTDSVYDSYARPGTVVEQSPIPLAKIKRGGTVYLTLVA", "soluble fraction (log2)": -0.105},
      {"sequence": "HMSSSYTEMQLDKLKKLLEKETLLSSEKSELKSLIHDFDKIPEVVSPLIVGEYLRLKNKYIAVINSLE", "soluble fraction (log2)": -0.214}
    ]}
  ]
}
